Assay results: paper PMC11059233

Target: HLA-B*08:01 expressed in C1R cells (C1R.B*08:01) (human | human (endogenous in C1R))

First: influenza B virus NP_(30-38) peptide
Second: influenza B virus NP_(92-99) peptide
The IFN-γ+TNF+ CD8+ T cells (expanded with pool I) after restimulation with peptide-pulsed C1R.B*08:01; donors responding of the first is lower: 5 of 9 donors for the first, 6 of 9 donors for the second.

For influenza B virus NP_(479-487) peptide, the IFN-γ+TNF+ CD8+ T cells (expanded with pool I) after restimulation with peptide-pulsed C1R.B*08:01; donors responding was 4 of 9 donors.

Target: HLA-B*07:02 expressed in C1R cells (C1R.B*07:02) (human | human (endogenous in C1R))

Compared with influenza B virus NP_(30-38) peptide, influenza B virus HA_(255-263) peptide is lower in IFN-γ+TNF+ CD8+ T cells (expanded with pool H) after restimulation with peptide-pulsed C1R.B*07:02; donors responding: 7 of 10 donors for the first, 2 of 10 donors for the second.

First: influenza B virus NS1_(196-206) peptide
Second: influenza B virus NP_(233-244) peptide
The IFN-γ+TNF+ CD8+ T cells (expanded with pool H) after restimulation with peptide-pulsed C1R.B*07:02; donors responding of the first is lower: 6 of 10 donors for the first, 9 of 10 donors for the second.

Target: HLA-B*35:01 expressed in C1R cells (C1R.B*35:01) (human | human (endogenous in C1R))

Compared with influenza B virus NS1_(260-268) peptide, influenza B virus HA_(231-239) peptide is lower in IFN-γ+TNF+ CD8+ T cells (expanded with pool J) after restimulation with peptide-pulsed C1R.B*35:01; donors responding: 5 of 6 donors for the first, 3 of 6 donors for the second.
